Measurements reported in patent US20050182242A1, “Global analysis of protein activities using proteome chips” (priority 2001, published 2005).

What was measured:
total yeast genomic DNA = experiment: Yeast proteome chip probed with labeled genomic DNA; format: binding; conditions: Cy3-labeled genomic DNA, visual inspection
Source text: Protein-DNA and protein-RNA interactions are important for many fundamental biological functions such as transcription regulation, chromosome segregation and maintenance, and RNA transport and processing (Williamson, 2000, Nat. Struct. Biol. 7(10):834-7). To explore the possibility of using a proteome chip to identify proteins that bind to DNA or RNA molecules, total yeast genomic DNA was labeled using Cy3-CTP and Klenow fragment, and polyA^+ was labeled using a biotinylated psoralen-derivative (31). Each probe was incubated with a different proteome chip (FIG. 3A).
The protein-nucleic acid interaction was assayed as follows. The nucleic acid robes were labeled as described by Winzeler et al. (1999, Science 285:901). Blocked proteome chips were washed three to five times in PBS buffer, and the extra liquid on the glass surface was removed by tapping the slides vertically on a KIMWIPE™. 200 μl of labeled nuclei acid probe ([…] poly(dC/dG); 100-300 mM NaCl; 50-300 mM HEPES, pH 7.0-8.5; 10 mM MgCl2) was added to the proteome chip and immediately covered by a hydrophobic plastic cover slip (GRACE BIO-LABS™, USA). After trapped air bubbles were removed, the chip was incubated in a humidity chamber in the dark at room temperature (“RT”) for one hour. To remove the cover slip, the chip was immersed into large volume of PBS buffer(>50 ml), so that the slip would float away. The chip was then moved to a second PBS bath (>50 ml) and washed 3×5 min with shaking in the dark at RT. To completely remove the liquid on the chip, the chip was spun to dryness at 1500-2000 rpm for 5-10 min at RT.

PI(3)P liposomes = experiment: Yeast proteome chip probed with PI(3)P liposomes; conditions: liposome binding signal on yeast proteome chip, Cy3-streptavidin detection
[1] = system: phosphatidylcholine (PC) liposomes; experiment: Yeast proteome chip probed with PC liposomes; conditions: liposome binding signal on yeast proteome chip, Cy3-streptavidin detection
Summary of the method: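 Binding detected by fluorescent streptavidin (Cy3 or Cy5, >30 min in the dark at RT) recognizing biotin-DHPE (1% w/w) in PC liposomes, which carried 5% (w/w) of the named phosphoinositide unless PC-only. Liposomes, made by sonication in TBS, were applied to blocked chips for 1 h at RT, then washed in PBS.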

PI(3,4,5)P3 liposomes = experiment: Yeast proteome chip probed with PI(3,4,5)P3 liposomes; conditions: liposome binding signal on yeast proteome chip, Cy3-streptavidin detection
PI(3,4)P2 liposomes = experiment: Yeast proteome chip probed with PI(3,4)P2 liposomes; conditions: liposome binding signal on yeast proteome chip, Cy3-streptavidin detection
PI(4,5)P2 liposomes = experiment: Yeast proteome chip probed with PI(4,5)P2 liposomes; conditions: liposome binding signal on yeast proteome chip, Cy3-streptavidin detection
PI(4)P liposomes = experiment: Yeast proteome chip probed with PI(4)P liposomes; conditions: liposome binding signal on yeast proteome chip, Cy3-streptavidin detection

Molecule | binding of genomic DNA probe (total yeast genomic DNA) | other results
xrs2p: yeast DNA-repair protein (protein, UniProt P33301 1-854, looked up) DNA repair protein XRS2: MWVVRYQNTLEDGSISFISCCLQAFKTYSIGRSSKNPLIIKNDKSISRQHITFKWEINNSSDLKHSSLCLVNKGKLTSLNKKFMKVGETFTINASDVLKSTIIELGTTPIRIEFEWINEVWNIPPHLTQFRTMLSEYGISTEISINDIPANLMISDYPKSEDNSIRELYALVSTIPMKKSRFLMELCNTLLPTSKTNLKFDEMWNDMISNPEYNVFDFDPNILLSKFMRLNNIRVLTTIKSEPRLSSLLRTFNINLFAFDNIDSLYKYVDSLEASTEYLILTTTDKKENGKILCTIKTMLTSIIDGTLSAVINMKGASSRTLDNGKFDQISEGMSTILKTSRAPEVEASPVVSKKRKLNRRRVLPLDSLDFFAGGLSTKTLSENRSLTDAKRLNCGAESKTVISSPNIAEADEKHAPFLQNALKPTEDIGKKSGHSSPGAIIVSSPNLGTVNTSEDSLDKSLQSHKLPQPSLPEVAGIGSQTISSNSADYETAAVNSMDDAEVTKNFRVNHHQNIEQPSKNIRKLSNYSREISSPLQENCKSPVKELSIKEKSGTPHAFVEAIQETKNREVKRVKSTIVELKDEELSEEAINQLKNLAIVEPSNNLLRKSFDSEGNKTSRTTEKWENSLMEPEWHKRKNFKTFVKVRPKSKAHKEEGKNNTQSSDFIRNAAFLITRNYVPLKKYSKKDTTTKWGTEENEDMFALTEMERFGSNTFMSDNINSNTIQKRSQALNRFTNEDSSNEGEEDSFSFSRCSGTAASVQPLKNKIFITDEDDLGDIDDKSDRLNHRENNRNLFVVKEMNLRPNLSEECSKQSRHSRSATSRSRGSFGASNNGDGDDDDDDGPKFTFKRRKG | identified | –
Cdc1p: yeast DNA-repair protein (protein, UniProt P40986 1-491, looked up) Cell division control protein …: MVYRNRSKSVLSTHSKKSDDKAHYKSRSKKKSKSRSKKRLRIYWRYISIVWILWLGLISYYESVVVKRAMKKCQWSTWEDWPEGAESHRVGLFADPQIMDEYSYPGRPQIVNYFTRVIVDHYHRRNWKYVQYYLDPDSNFFLGDLFDGGRNWDDKQWIKEYTRFNQIFPKKPLRRTVMSLPGNHDIGFGDTVVESSLQRFSSYFGETSSSLDAGNHTFVLLDTISLSDKTNPNVSRVPRQFLDNFAMGSHPLPRILLTHVPLWRDPEQQTCGQLRESKEPFPIQKGHQYQTVIENDISQEILTKIQPEILFSGDDHDHCQISHSYPFQGKTKNAQEITVKSCAMNMGISRPAIQLLSLYNPSDLTMVNAGGEYASKTYQTELCYMPDPYKAIRMYLWGLLFSAAFIAYMHFFPKSFNNRVATIMNRVFTRPDGNTSDLPLPTSISKSKSKKSLTHSKYAVNDTRSIKQFLVNAIVLFVSVMPIFIYFYTVV | identified | –
Rad51p: yeast DNA-repair protein (protein, UniProt P25454 1-400, looked up) DNA repair protein RAD51: MSQVQEQHISESQLQYGNGSLMSTVPADLSQSVVDGNGNGSSEDIEATNGSGDGGGLQEQAEAQGEMEDEAYDEAALGSFVPIEKLQVNGITMADVKKLRESGLHTAEAVAYAPRKDLLEIKGISEAKADKLLNEAARLVPMGFVTAADFHMRRSELICLTTGSKNLDTLLGGGVETGSITELFGEFRTGKSQLCHTLAVTCQIPLDIGGGEGKCLYIDTEGTFRPVRLVSIAQRFGLDPDDALNNVAYARAYNADHQLRLLDAAAQMMSESRFSLIVVDSVMALYRTDFSGRGELSARQMHLAKFMRALQRLADQFGVAVVVTNQVVAQVDGGMAFNPDPKKPIGGNIMAHSSTTRLGFKKGKGCQRLCKVVDSPCLPEAECVFAIYEDGVGDPREEDE | identified | –
Spt2p: transcription factor, negative regulator of HO gene transcription (protein, UniProt P06843 2-333, looked up) Protein SPT2: SFLSKLSQIRKSTTASKAQVQDPLPKKNDEEYSLLPKNYIRDEDPAVKRLKELRRQELLKNGALAKKSGVKRKRGTSSGSEKKKIERNDDDEGGLGIRFKRSIGASHAPLKPVVRKKPEPIKKMSFEELMKQAENNEKQPPKVKSSEPVTKERPHFNKPGFKSSKRPQKKASPGATLRGVSSGGNSIKSSDSPKPVKLNLPTNGFAQPNRRLKEKLESRKQKSRYQDDYDEEDNDMDDFIEDDEDEGYHSKSKHSNGPGYDRDEIWAMFNRGKKRSEYDYDELEDDDMEANEMEILEEEEMARKMARLEDKREEAWLKKHEEEKRRRKKGIR | identified | –
Met30p: yeast protein with five WD-repeats that binds certain promoter regions (protein, UniProt P39014 1-640, looked up) F-box protein MET30: MRRERQRMMSFEDKDKDDLDNSNSNNSSEMTDTAMMPPLKRLLITGSSDDLAQGSSGKKKMTMATRSPSSSPDLATNDSGTRVQPLPEYNFTKFCYRHNPDIQFSPTHTACYKQDLKRTQEINANIAKLPLQEQSDIHHIISKYSNSNDKIRKLILDGILSTSCFPQLSYISSLVTHMIKIDFISILPQELSLKILSYLDCQSLCNATRVCRKWQKLADDDRVWYHMCEQHIDRKCPNCGWGLPLLHMKRARIQQNSTGSSSNADIQTQTTRPWKVIYRERFKVESNWRKGHCRIQEFKGHMDGVLTLQFNYRLLFTGSYDSTIGIWDLFTGKLIRRLSGHSDGVKTLYFDDRKLITGSLDKTIRVWNYITGECISTYRGHSDSVLSVDSYQKVIVSGSADKTVKVWHVESRTCYTLRGHTEWVNCVKLHPKSFSCFSCSDDTTIRMWDIRTNSCLKVFRGHVGQVQKIIPLTIKDVENLATDNTSDGSSPQDDPTMTDGADESDTPSNEQETVLDENIPYPTHLLSCGLDNTIKLWDVKTGKCIRTQFGHVEGVWDIAADNFRIISGSHDGSIKVWDLQSGKCMHTFNGRRLQRETQHTQTQSLGDKVAPIACVCIGDSECFSGDEFGCVKMYKFDLND | identified | –
Trm2p: yeast protein involved in DNA repair and RNA processing/modification (protein, UniProt P33753 1-639, looked up) tRNA …: MYEQFEFSFFFFENSDNKVKYKAHLISSIKRWSIITCMRCFWTVQKSIFKARFFACRNFVKKHNYKLISTMTGSTEMVPPTMKHTVDNKRLSSPLTDSGNRRTKKPKLRKYKAKKVETTSPMGVLEFEVNDLLKSQNLSREQVLNDVTSILNDKSSTDGPIVLQYHREVKNVKVLEITSNGNGLALIDNPVETEKKQVVIIPFGLPGDVVNIKVFKTHPYYVESDLLDVVEKSPMRRDDLIRDKYFGKSSGSQLEFLTYDDQLELKRKTIMNAYKFFAPRLVAEKLLPPFDTTVASPLQFGYRTKITPHFDMPKRKQKELSVRPPLGFGQKGRPQWRKDTLDIGGHGSILDIDECVLATEVLNKGLTNERRKFEQEFKNYKKGATILLRENTTILDPSKPTLEQLTEEASRDENGDISYVEVEDKKNNVRLAKTCVTNPRQIVTEYVDGYTFNFSAGEFFQNNNSILPIVTKYVRDNLQAPAKGDDNKTKFLVDAYCGSGLFSICSSKGVDKVIGVEISADSVSFAEKNAKANGVENCRFIVGKAEKLFESIDTPSENTSVILDPPRKGCDELFLKQLAAYNPAKIIYISCNVHSQARDVEYFLKETENGSAHQIESIRGFDFFPQTHHVESVCIMKRI | identified | –
PCL6: yeast GST-HisX6 fusion protein on proteome chip (protein, UniProt P40038 1-420, looked up, GST-His6 fusion tag, yeast GST-HisX6 fusion protein on proteome chip) PHO85 cyclin-6: MSIKGDSPSSTNASSSPKSTYSIQSDDKANLGSGNVDIRTDNSQQDSNNRRDIVVVTRVASEETLESQSSTSSMGIRPESSFNYEDASNQARVEMNNRVHGSNMNTINKYYPVRFPKNNERQLSDTNNLNEKVQGTHTVQSSTQEDKILDGDTSNSQVTPSLNIAEFPTDKLLKMLTALLTKIIKSNDRTAATNPSLTQEIENGRCLALSDNEKKYLSPVLGFRGKHVPQIGLDQYFQRIQKYCPTTNDVFLSLLVYFDRISKRCNSVTTTPKTNTAKHESPSNESSLDKANRGADKMSACNSNENNENDDSDDENTGVQRDSRAHPQMFVMDSHNIHRLIIAGITVSTKFLSDFFYSNSRYSRVGGISLQELNHLELQFLVLCDFELLISVNELQRYADLLYRFWNNAKAQSQALVTGM | – | PI(3)P (PI(3)P liposomes): 9.00; PC [1]: 31.70; PI(3, 4, 5)P3 (PI(3,4,5)P3 liposomes): 26.89; PI(3, 4)P2 (PI(3,4)P2 liposomes): 26.84; PI(4, 5)P2 (PI(4,5)P2 liposomes): 3.70; PI(4)P (PI(4)P liposomes): 8.06
